Laboratory results from patent publication US20210283212A1 (RA PHARMACEUTICALS, published 2021).
Like-named read-outs stand apart in the source and are kept apart here. Blank lines part the entries; values can stand above or below the binder they belong to. Positions of bridges follow the written chain, without caps; N, C: chain ends. Non-standard residues stand in square brackets, D forms with d. Primed or numbered codes have the meaning given here. No end group written: not given here. mXylyl(3) = bridging moiety between the two residues given in brackets; mXylyl″ = bridging moiety between the two marked residues; Trp(7-aza) = N[C@@H](Cc1c[nH]c2ncccc12)C(=O)O; mXylyl(4) = bridging moiety between residues; Phg = N[C@H](C(=O)O)c1ccccc1; Tle = CC(C)(C)[C@H](N)C(=O)O; NMeS = CN[C@@H](CO)C(=O)O; Nva = CCC[C@H](N)C(=O)O

What was measured:
Assay in all cases: cell-based or functional assay
human C5 protein [1] = target: T1, human C5 protein (human, UniProt P01031 19-673; P01031 678-1676)
human C5 protein [2] = target: T1, human C5 protein; remark: listed apart in the source
human C5 protein [3] = target: T1, human C5 protein; remark: listed apart in the source
human C5 protein [4] = target: T1, human C5 protein; remark: listed apart in the source
human C5 protein [5] = target: T1, human C5 protein; remark: listed apart in the source
primate C5 protein = primate C5 protein (primate, UniProt A0A2K5U1T1 19-673; A0A2K5U1T1 678-1676, Mature C5 is a disulfide-linked heterodimer of beta and alpha chains; it is glycosylated. The letters do not carry either feature.)
human C5 protein [6] = target: T1, human C5 protein; remark: listed apart in the source

primate C5 protein, sequence (beta, as listed by the source limits assumed, chain 1 of 2): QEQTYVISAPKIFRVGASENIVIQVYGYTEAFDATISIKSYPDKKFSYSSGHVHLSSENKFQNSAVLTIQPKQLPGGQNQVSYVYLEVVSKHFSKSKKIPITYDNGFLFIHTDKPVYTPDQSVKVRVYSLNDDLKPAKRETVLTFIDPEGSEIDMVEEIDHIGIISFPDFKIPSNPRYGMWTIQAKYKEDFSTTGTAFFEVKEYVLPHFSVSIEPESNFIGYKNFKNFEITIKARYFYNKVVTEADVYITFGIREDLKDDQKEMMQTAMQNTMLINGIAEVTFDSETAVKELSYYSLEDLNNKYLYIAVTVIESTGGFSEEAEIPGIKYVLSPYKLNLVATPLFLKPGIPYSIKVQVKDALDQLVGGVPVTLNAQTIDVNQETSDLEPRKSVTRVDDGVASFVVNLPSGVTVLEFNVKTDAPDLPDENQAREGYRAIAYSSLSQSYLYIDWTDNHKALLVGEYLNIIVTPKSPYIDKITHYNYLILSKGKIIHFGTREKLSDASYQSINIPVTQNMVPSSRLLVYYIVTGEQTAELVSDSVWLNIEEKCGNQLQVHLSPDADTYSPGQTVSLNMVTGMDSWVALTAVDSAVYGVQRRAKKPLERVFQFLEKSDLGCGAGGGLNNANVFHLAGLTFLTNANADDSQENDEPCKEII
primate C5 protein, sequence (alpha, as listed by the source limits assumed, chain 2 of 2): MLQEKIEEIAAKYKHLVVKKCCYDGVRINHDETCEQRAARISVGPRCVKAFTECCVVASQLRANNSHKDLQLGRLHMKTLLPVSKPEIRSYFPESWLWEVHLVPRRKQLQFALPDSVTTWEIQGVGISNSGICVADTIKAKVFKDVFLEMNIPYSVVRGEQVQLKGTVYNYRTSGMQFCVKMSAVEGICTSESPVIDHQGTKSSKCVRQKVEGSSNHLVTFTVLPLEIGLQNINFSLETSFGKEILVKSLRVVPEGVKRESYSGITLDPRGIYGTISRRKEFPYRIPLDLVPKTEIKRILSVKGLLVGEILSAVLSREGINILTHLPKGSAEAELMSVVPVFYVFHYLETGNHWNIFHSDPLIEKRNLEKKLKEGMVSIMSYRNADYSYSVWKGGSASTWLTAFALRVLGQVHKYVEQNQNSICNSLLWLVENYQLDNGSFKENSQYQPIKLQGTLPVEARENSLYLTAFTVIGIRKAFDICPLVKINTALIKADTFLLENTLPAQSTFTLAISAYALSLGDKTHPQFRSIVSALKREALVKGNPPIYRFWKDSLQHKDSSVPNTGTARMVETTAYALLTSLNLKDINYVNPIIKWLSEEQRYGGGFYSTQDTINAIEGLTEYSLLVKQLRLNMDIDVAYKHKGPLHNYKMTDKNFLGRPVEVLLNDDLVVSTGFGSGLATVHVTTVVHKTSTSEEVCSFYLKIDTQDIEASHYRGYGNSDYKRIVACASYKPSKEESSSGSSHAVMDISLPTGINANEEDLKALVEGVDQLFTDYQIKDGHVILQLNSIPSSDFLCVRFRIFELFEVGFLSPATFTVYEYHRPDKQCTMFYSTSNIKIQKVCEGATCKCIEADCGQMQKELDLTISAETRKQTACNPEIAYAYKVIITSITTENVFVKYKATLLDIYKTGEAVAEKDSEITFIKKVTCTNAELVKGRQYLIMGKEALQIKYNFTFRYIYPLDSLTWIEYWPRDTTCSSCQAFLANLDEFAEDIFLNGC

B1: R3041 (peptide)
peptide: Ac-YEN[Tle]YWEYP[Phg][Nva]-NH2
SMILES: CCC[C@H](NC(=O)[C@@H](NC(=O)[C@@H]1CCCN1C(=O)[C@H](Cc1ccc(O)cc1)NC(=O)[C@H](CCC(=O)O)NC(=O)[C@H](Cc1c[nH]c2ccccc12)NC(=O)[C@H](Cc1ccc(O)cc1)NC(=O)[C@@H](NC(=O)[C@H](CC(N)=O)NC(=O)[C@H](CCC(=O)O)NC(=O)[C@H](Cc1ccc(O)cc1)NC(C)=O)C(C)(C)C)c1ccccc1)C(N)=O
- Avg. IC50, human hemolysis assay (human C5 protein [1]): 0.0713 µM
- Avg. IC50 (nM), human hemolysis assay (human C5 protein [2]): 71.3 nM

Binder: MCVERFCDVYW-NH2 (linker 2-7 via mXylyl(4)) [R3044]
- Avg. IC50, human hemolysis assay (human C5 protein [1]): > 50 µM
- Avg. IC50 (nM), human hemolysis assay (human C5 protein [3]): > 50000 nM

Binder: MCVERFC-NH2 (linker 2-7 via mXylyl(4)) [R3047]
- Avg. IC50, human hemolysis assay (human C5 protein [1]): > 100 µM
- Avg. IC50 (nM), human hemolysis assay (human C5 protein [3]): > 100000 nM

Binder: Ac-CVERFCVYWEF-NH2 (linker 1-6 via mXylyl(3)) [R3124]
- Avg. IC50, human hemolysis assay (human C5 protein [1]): > 100 µM
- Avg. IC50 (nM), human hemolysis assay (human C5 protein [4]): > 100000 nM

Binder: VCYENGYWEYPGV (Ac-Nvl-C-Y-E-N-Tbg-Y-azaTrp-E-Y-P-Phg-Nvl-NH2) [R3002]
- IC50, formation of C5a (C5a EIA on human RBC hemolysis supernatant) (human C5 protein [5]): 0.0054 µM

Binder: MCVERFCDVY-NH2 (linker 2-7 via mXylyl(4)) [R3045]
- Avg. IC50, human hemolysis assay (human C5 protein [1]): > 100 µM
- Avg. IC50 (nM), human hemolysis assay (human C5 protein [3]): > 100000 nM

Binder: MCVERFCDV-NH2 (linker 2-7 via mXylyl(4)) [R3046]
- Avg. IC50, human hemolysis assay (human C5 protein [1]): > 100 µM
- Avg. IC50 (nM), human hemolysis assay (human C5 protein [3]): > 100000 nM

Binder: MCVERFCDVYWE-NH2 (linker 2-7 via mXylyl(4)) [R3043]
- Avg. IC50, human hemolysis assay (human C5 protein [1]): 0.934 µM
- Avg. IC50 (nM), human hemolysis assay (human C5 protein [3]): 934 nM

Binder: Ac-CVERFCWEF-NH2 (linker 1-6 via mXylyl(3)) [R3125]
- Avg. IC50, human hemolysis assay (human C5 protein [1]): > 100 µM
- Avg. IC50 (nM), human hemolysis assay (human C5 protein [4]): > 100000 nM

- IC50, alternative pathway of complement activation (WIESLAB kit, serum samples) (human C5 protein [5]): 0.0125 µM
Binder: KVERFDDGYWEYPGK ([cyclo(1,6)]Ac-K-V-E-R-F-D-(N-Me)D-Tbg-Y-azaTrp-E-Y-P-Chg-(Lys-C16)) [R3183]
- IC50, formation of the MAC (MAC EIA on human RBC hemolysis supernatant) (human C5 protein [5]): 0.0069 µM
- IC50, hemolysis assay with 1% cynomolgus monkey serum (primate C5 protein): 0.0042 µM

Binder: Ac-CVERFCDVYWEF-NH2 (linker 1-6 via mXylyl(4)) [R3048]
- Avg. IC50, human hemolysis assay (human C5 protein [1]): 0.0193 µM
- Avg. IC50 (nM), human hemolysis assay (human C5 protein [4]): 19.3 nM

Binder: Ac-[Nva]C[Phg]T[Trp(7-aza)]EY[NMeS]HC[Nva]P[Nva]-NH2 (linker 2-10 via mXylyl″) [R3008]
- Avg. IC50, human hemolysis assay (human C5 protein [1]): 0.097 µM
- IC50, formation of C5a (C5a EIA on human RBC hemolysis supernatant) (human C5 protein [5]): 0.0545 µM
- IC50, formation of the MAC (MAC EIA on human RBC hemolysis supernatant) (human C5 protein [5]): 0.033 µM
- Avg. IC50 (nM), human hemolysis assay (human C5 protein [6]): 97 nM
